From patent US20210063414A1, “METHODS FOR PREVENTING AND/OR TREATING BONE LOSS CONDITIONS BY MODULATING IRISIN” (Dana-Farber Cancer Institute, Inc., priority 2018, published 2021)

Assays:
Test in all cases: Crosslinking/co-immunoprecipitation/mass spectrometry (TMT quantitative proteomics) to identify irisin receptors
Format in all cases: binding
[1] = molecular target: T1, MLO-Y4 cell surface proteins (Mus musculus, UniProt Q3U2P1); conditions: co-precipitated protein Sec24a (SC24A_MOUSE)
T1 construct: endogenous in cells; host or cells: MLO-Y4
T1 sequence (Q3U2P1 1-1090): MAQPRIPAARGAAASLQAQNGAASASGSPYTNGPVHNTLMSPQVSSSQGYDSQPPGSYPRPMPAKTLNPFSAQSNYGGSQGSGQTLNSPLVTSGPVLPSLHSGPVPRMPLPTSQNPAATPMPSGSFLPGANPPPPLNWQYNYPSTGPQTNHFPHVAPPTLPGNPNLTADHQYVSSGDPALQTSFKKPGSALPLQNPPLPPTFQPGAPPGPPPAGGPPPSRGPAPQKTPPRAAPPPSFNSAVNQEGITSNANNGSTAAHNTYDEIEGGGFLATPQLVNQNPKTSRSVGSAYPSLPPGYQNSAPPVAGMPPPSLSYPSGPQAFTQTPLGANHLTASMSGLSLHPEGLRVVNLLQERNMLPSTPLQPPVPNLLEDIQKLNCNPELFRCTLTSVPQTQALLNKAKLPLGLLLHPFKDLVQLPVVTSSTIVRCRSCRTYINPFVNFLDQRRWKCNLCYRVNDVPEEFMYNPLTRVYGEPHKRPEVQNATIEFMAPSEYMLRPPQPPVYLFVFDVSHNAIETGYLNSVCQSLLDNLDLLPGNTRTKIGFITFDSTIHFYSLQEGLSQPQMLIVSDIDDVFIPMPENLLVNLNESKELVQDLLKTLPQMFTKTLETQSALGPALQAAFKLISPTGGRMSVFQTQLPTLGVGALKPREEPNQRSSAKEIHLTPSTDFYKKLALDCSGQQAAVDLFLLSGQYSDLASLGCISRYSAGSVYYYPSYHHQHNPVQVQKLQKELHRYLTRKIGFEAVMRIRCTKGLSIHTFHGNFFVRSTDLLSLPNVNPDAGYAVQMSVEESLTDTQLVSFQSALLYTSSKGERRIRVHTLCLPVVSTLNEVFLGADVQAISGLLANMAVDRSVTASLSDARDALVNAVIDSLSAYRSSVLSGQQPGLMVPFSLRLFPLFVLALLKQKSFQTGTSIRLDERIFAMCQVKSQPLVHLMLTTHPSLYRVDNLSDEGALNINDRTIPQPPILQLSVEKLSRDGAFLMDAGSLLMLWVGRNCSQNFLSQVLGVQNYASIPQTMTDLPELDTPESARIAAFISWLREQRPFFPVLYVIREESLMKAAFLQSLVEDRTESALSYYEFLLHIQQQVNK
Procedure, shortened: (§1)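 Relative protein abundance came from 6-plex TMT MS3 quantitation on an Orbitrap Fusion Lumos, after in-gel trypsin digestion of Coomassie-stained SDS-PAGE lanes. Input was a Ni-NTA pulldown (250 mM imidazole elution) of lysates from murine MLO-Y4 cells. These cells were treated on ice with His-tagged irisin or adipsin (10 nM, 20 min) in serum-free medium, then crosslinked with 1.5 mM DTSSP for 30 min.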

[2] = molecular target: T2, MLO-Y4 cell surface proteins (Mus musculus, UniProt Q6NWW9); conditions: TMT ratio, Fndc3b Fibronectin type III domain-containing protein 3B
T2 construct: endogenous in cells; host or cells: MLO-Y4
Procedure, shortened: as §1

[3] = molecular target: T3, MLO-Y4 cell surface proteins (Mus musculus, UniProt Q9WTP6); conditions: co-precipitated protein Ak2 (KAD2_MOUSE)
T3 construct: endogenous in cells; host or cells: MLO-Y4
Procedure, shortened: as §1

T2 sequence (Q6NWW9 whole entry, the tested form may be a part): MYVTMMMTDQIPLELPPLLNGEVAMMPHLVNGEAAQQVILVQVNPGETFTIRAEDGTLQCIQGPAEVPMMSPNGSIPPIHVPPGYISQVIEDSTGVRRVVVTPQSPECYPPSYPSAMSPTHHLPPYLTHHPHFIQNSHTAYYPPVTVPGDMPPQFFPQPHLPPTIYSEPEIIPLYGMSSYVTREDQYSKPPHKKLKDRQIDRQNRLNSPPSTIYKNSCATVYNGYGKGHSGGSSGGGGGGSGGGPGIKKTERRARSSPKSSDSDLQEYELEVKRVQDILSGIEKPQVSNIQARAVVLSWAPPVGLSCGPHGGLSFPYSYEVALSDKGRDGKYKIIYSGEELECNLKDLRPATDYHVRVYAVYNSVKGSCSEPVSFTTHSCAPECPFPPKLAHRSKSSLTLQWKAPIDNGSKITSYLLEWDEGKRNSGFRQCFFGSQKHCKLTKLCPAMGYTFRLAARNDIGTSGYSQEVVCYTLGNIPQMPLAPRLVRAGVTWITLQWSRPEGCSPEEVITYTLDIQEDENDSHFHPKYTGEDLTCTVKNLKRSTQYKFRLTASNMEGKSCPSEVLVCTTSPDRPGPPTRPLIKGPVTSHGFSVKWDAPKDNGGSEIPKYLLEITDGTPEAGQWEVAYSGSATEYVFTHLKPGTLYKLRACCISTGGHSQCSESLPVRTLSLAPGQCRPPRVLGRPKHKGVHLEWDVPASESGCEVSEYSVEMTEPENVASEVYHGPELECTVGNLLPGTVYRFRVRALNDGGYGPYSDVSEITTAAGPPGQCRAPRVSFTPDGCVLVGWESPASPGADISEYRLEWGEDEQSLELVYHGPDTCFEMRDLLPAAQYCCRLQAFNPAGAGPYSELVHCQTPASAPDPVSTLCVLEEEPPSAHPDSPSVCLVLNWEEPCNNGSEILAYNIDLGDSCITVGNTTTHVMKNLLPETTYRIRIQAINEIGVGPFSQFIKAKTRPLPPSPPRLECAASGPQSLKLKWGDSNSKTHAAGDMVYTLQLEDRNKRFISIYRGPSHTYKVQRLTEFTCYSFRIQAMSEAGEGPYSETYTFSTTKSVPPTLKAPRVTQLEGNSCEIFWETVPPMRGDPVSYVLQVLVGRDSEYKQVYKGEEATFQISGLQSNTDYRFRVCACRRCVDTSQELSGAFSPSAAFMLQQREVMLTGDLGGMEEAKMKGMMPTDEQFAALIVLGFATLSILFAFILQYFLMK

B1: irisin: secreted cleaved form of FNDC5; recombinant human/mouse irisin with C-terminal his tag produced in HEK293 cells (protein)
chain: DSPSAPVNVTVRHLKANSAVVSWDVLEDEVVIGFAISQQKKDVRMLRFIQEVNTTTRSCALWDLEEDTEYIVHVQAISIQGQSPASEPVLFKTPREAEKMASKNKDEVTMKE
modifications: left off: small tags and cut ends
notes: secreted cleaved form of FNDC5; recombinant human/mouse irisin with C-terminal his tag produced in HEK293 cells
B1 was tested, and the TMT signal-to-noise ratio [1] was 29.3088, the “irisin/adipsin TMT signal-to-noise ratio” value [1] was 0.246 and the irsin/adipsin [2] was 2.88. For the same molecule, the TMT signal-to-noise ratio [3] was 61.9776 and the “irisin/adipsin TMT signal-to-noise ratio” value [3] was 0.546.
